Measured values from patent publication US20100111995A1.

Molecular target: CCR5 expressed on the cell surface (CEM.NKR-CCR5 cells; stimulated CD4+ T cells; CEM 5.25.EGFP.luc.M7 cells) (human) (UniProt P51681)
Assay: cell-based or functional assay

“RANTES (from UniProt P13501 24-91) (ligand)” gave an Antibody concentrations inhibiting HIV, 50% inhibition of 5.8 ng/mL and an Antibody concentrations inhibiting HIV, 70% inhibition of 14.7 ng/mL.
